# T1: CEACAM-5 epitope in FFPE tissues/cells (Homo sapiens, UniProt P06731)
# T1 construct: formaldehyde fixed paraffin embedded (FFPE) cancer cell line microarrays (CMAs) and human tumor tissues; endogenous in cells; host or cells: 104 FFPE cancer cell lines (microarray)
# T1 sequence (P06731 35-676): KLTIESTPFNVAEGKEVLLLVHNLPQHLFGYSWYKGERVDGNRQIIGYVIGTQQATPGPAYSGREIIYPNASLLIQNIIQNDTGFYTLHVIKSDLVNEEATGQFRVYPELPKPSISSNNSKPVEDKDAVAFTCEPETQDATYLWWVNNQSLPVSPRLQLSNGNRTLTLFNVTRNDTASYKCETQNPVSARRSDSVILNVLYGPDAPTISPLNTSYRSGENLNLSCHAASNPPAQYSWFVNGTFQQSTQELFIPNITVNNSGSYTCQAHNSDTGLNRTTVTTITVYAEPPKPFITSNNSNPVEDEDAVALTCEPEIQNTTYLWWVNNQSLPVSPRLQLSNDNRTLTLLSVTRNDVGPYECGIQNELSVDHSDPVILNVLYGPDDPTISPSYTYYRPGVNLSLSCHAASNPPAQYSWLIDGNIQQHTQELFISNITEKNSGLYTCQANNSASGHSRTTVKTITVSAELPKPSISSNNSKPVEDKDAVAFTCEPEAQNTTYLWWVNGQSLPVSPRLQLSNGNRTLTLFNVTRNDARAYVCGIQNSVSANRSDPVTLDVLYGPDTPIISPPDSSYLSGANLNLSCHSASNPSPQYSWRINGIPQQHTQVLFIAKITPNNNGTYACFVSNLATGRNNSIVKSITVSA
# Assays:
# [1] = tested on: MDA-MB-231; experiment: Viability assay (Cell Titer-Glo), MDA-MB-231; assay type: cell-based; details: Homo sapiens, read-out: Maximal effect compared to untreated controls at the highest tested concentration
# Description: Cytotoxicity effects of the ADC on the cancer cell lines were measured by cell viability assays. Cells were seeded in a volume of 90 μL in 96-well plates the day before treatment. Test compounds (ADCs or free payloads) were formulated at 10-fold the starting concentration in cell culture medium. Test compounds were serial diluted (1:4) and 10 μL of each dilution was added to the cells in triplicates. Plates were cultured at 37° C. in a CO2 incubator for six days. For cell viability measurement, Cell Titer-Glo® reagent (Promega™ Corp, Madison, WI) was added to each well, and plates processed according to the manufacturer's instructions. Luminescence signals were measured using a Varioskan plate reader (Thermo Fisher). Luminescence readings were converted to % viability relative to untreated cells. Data was fitted with non-linear regression analysis, using log (inhibitor) vs. response, variable slope, 4-parameter fit equation using GraphPad Prism. Data is shown as % relative cell viability vs. molar compound concentration, error bars indicating standard deviation (SD) of triplicates. Geometric mean values of IC50s derived from multiple experiments were calculated.
# [2] = in vivo; cited from earlier work
# [3] = in vivo; cited from earlier work; remark: listed apart in the source
# [4] = tested on: CEACAM5 from Macaca fascicularis; details: cited from earlier work
# [5] = target: T1, CEACAM-5 epitope in FFPE tissues/cells; experiment: IHC staining on FFPE cancer cell lines versus CEACAM5 mRNA expression; assay type: binding; details: 104 cancer cell lines, CCLE dataset
# Description: For the IHC staining with the anti-CEACAM-5 antibody rb8G4, sections of 4 μm from formaldehyde fixed paraffin embedded (FFPE) cancer cell line microarrays (CMAs) and human tumor tissues were mounted on charged slides (SuperFrost Ultra Plus, Thermo Fisher Scientific or TOMO, Matsunami). The staining procedure was performed using a Discovery XT (Roche Diagnostics) staining platform. Following deparaffinization, the sections were heated for epitope retrieval in Tris-EDTA buffer pH 8 (CC1, Roche Diagnostics). The sections were incubated with the primary monoclonal antibody rb8G4 diluted to 0.5 or 0.7 μg/ml in phosphate-buffered saline (PBS) or antibody diluent buffer (DCS). The clone DA1E (rabbit monoclonal IgG, NEB) served as isotype control antibody. The primary antibodies were followed by the HQ anti-rabbit IgG detection kit (Roche Diagnostics). […]
# CMAs and the TMA with human organ tissue were stained and scanned with the NanoZoomer (Hamamatsu) with a resolution of 0.46 μm/pixel. […] The scans of the CMAs were analyzed with the image analysis software HALO (Indica Labs, USA). For the determination of the amount of antigen present, positive brown stained area was calculated as percent area of the viable tissue area. Staining (arbitrary units) is calculated as Antibody staining (AU)=% positive tissue area*Average optic density (OD ranges from 0 to 1) of the brown colour. […]
# CEACAM5 from Macaca fascicularis, sequence (as listed by the source): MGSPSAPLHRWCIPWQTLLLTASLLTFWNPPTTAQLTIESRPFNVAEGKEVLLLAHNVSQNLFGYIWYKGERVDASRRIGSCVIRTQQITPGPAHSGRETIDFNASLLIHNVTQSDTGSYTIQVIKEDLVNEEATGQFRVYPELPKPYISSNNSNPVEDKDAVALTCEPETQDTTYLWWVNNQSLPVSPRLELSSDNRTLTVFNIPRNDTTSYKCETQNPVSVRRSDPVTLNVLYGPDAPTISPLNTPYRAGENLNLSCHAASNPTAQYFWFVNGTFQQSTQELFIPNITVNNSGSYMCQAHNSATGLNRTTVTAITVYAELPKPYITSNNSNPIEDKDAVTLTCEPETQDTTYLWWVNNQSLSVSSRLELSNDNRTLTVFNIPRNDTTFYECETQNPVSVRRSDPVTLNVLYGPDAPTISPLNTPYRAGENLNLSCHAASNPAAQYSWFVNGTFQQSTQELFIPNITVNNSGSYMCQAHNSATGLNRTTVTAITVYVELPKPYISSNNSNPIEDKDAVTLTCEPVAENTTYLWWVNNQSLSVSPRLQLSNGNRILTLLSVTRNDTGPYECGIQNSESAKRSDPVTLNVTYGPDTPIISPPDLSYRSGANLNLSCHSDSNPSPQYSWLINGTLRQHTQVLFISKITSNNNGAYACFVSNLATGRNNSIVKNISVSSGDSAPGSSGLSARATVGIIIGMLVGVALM
molecule,measurement,setting,value
"CC[C@@]1(O)C(=O)OCc2c1cc1n(c2=O)Cc2c-1nc1cc(F)c(C)c3c1c2[C@@H](N)CC3 [PAYLOAD, (1S,9S)-1-Amino-9-ethyl-5-fluoro-1,2,3,9,12,15-hexahydro-9-hydroxy-4-methyl-10H,13H-benzo(de)pyrano(3′,4′:6,7)indolizino(1,2-b)quinoline-10,13-dione]",Emax,[1],-92%
Labetuzumab govitecan,stability of the linker structure,[2],significant instability
SAR408701: Sanofi anti-CEACAM5 ADC: SAR408377 linked to DM4 via SPDB linker,side effects,[3],toxic side effects on several organs and tissues including the cornea of the eye
"hmn-14: known anti-CEACAM5 antibody as in labetuzumab govitecan; HC SEQ ID NO: 27, LC SEQ ID NO: 28",cross-reactivity with CEACAM5 from Macaca fascicularis,[4],not cross-reacting
"rb8G4: human/rabbit chimeric variant of mAb1; HC SEQ ID NO: 29, LC SEQ ID NO: 30 (antibody, HC of rb8G4; LC of rb8G4) heavy: EVQLQESGPGLVKPSQTLSLTCTVSDGSVSRGGYYLTWIRQHPGKGLEWIGYIYYSGSTYFNPSLRSRVTMSVDTSKNQFSLKLSSVTAADTAVYYCARGIAVAPFDYWGQGTLVTVSSQPKAPSVFPLAPCCGDTPSSTVTLGCLVKGYLPEPVTVTWNSGTLTNGVRTFPSVRQSSGLYSLSSVVSVTSSSQPVTCNVAHPATNTKVDKTVAPSTCSKPTCPPPELLGGPSVFIFPPKPKDTLMISRTPEVTCVVVDVSEDDPEVQFTWYINNEQVRTARPPLREQQFNSTIRVVSTLPIAHEDWLRGKEFKCKVHNKALPAPIEKTISKARGQPLEPKVYTMGPPREELSSRSVSLTCMINGFYPSDISVEWEKNGKAEDNYKTTPAVLDSDGSYFLYSKLSVPTSEWQRGDVFTCSVMHEALHNHYTQKSISRSPGK light: EIVLTQSPATLSVSPGERATLSCRTSQSVRSNLAWYQQKPGQAPRLLIYAASTRATGIPARFSGSGSGTEFTLTISSLQSEDFAVYYCQQYTNWPFTFGPGTKVDIKRDPVAPSVLLFPPSKEELTTGTATIVCVANKFYPSDITVTWKVDGTTQQSGIENSKTPQSPEDNTYSLSSTLSLTSAQYNSHSVYTCEVVQGSASPIVQSFNRGDC",Pearson correlation coefficient of IHC staining signal with mRNA expression,[5],0.88
